# In patent USRE49495E1, “Binding polypeptides having a mutated scaffold” (Affibody AB, priority 2013, dated 2023):
# How the values were obtained:
# human HER2-Fc = target: T1, human HER2-Fc (Homo sapiens, UniProt P04626); assay: Biacore 2000 comparative kinetic analysis, HER2; type: binding; details: for KDInv/KDOrig: original set to 1.0; for KD(2w)/KD(0): KD after stability test relative to KD before
# T1 construct: Fc; purchased R&D Systems 1129-ER-050
# Protocol: (§1) A set of polypeptides showing improved stability properties in Example 12 were further assessed in terms of preserved binding capacities to their targets after introduction of alterations in the scaffold, as well as after having been subjected to the stability test, i.e. incubated at 37° C. for 2 weeks. Comparative kinetic constants (kon and koff) and affinities (KD) were determined using a Biacore 2000 instrument. The target proteins human HER2-Fc (R&D Systems, cat. no. 1129-ER-050), human PDGF-Rβ (R&D Systems, cat. no. 385-PR-100/CF), human FcRn (Biorbyt, cat. no. orb 84388) and human CAIX (R&D Systems, cat. no. 2188-CA), respectively, were immobilized on the carboxylated dextran layer surface of CM5 chips (GE Healthcare). The immobilization was performed using amine coupling chemistry according to the manufacturer's protocol and using HBS-EP as running buffer. One flow cell surface on the chip was activated and deactivated for use as blank during analyte injections. The immobilization level of target protein on the respective surface was approximately 850 RU for HER2, 2200 RU for PDGF-Rβ, 750 for FcRn and 580 RU for CAIX.
# (§2) HBS-EP (HER2, PDGF-Rβ, CAIX) or a pH 6.0 Na2HPO4/citric acid buffer (126 mM Na2HPO4, 37 mM citric acid) (FcRn) was used as running buffer and the flow rate was 30 μl/min in the binding experiments performed at 25° C. as further described below.
# The Z variants Z02891 (SEQ ID NO:27), Z17341 (SEQ ID NO:28), and Z17342 (SEQ ID NO:29) targeting HER2 were diluted in running buffer to final concentrations of 3.33, 10, 30 and 90 nM and injected for 5 minutes, followed by 30 minutes of dissociation in running buffer. Regeneration by four pulses alternating between 10 mM HCl and 10 mM NaOH followed by 5 min equilibration in running buffer was applied after each analyte injection.
# (§3) Kinetic constants were calculated from the sensorgrams using the Langmuir 1:1 model (HER2, FcRn, CAIX) or the 1:1 binding with mass transfer model (PDGF-Rβ) of the BiaEvaluation software 4.1 (GE Healthcare). Curves of the blank surface were subtracted from the curves of the ligand surfaces and the data from the buffer cycles were subtracted from the data of the test-sample cycles to correct for any drift in signal.
# [1] = Circular dichroism, variable temperature measurement (Tm) and spectra before and after heating; type: physicochemical; details: His6-tagged, 0.5 mg/ml in PBS, CD at 221 nm, 20 to 90° C.
# Protocol: Circular dichroism (CD) analysis was carried out to determine the melting temperatures (Tm) and assess potential changes in the secondary structure of the inventive polypeptides as a result of the amino acid substitutions.
# Purified His6-tagged Z variants were diluted to 0.5 mg/ml in PBS. For each diluted Z variant, a CD spectrum at 250-195 nm was recorded at 20° C. A variable temperature measurement (VTM) was performed to determine the Tm. In the VTM, the absorbance was measured at 221 nm while the temperature was raised from 20 to 90° C., with a temperature slope of 5° C./min. After the VTM, a second CD spectrum at 250-195 nm was recorded at 20° C. The CD measurements were performed on a Jasco J-810 spectropolarimeter (Jasco Scandinavia AB) using a cell with an optical path-length of 1 mm.
# human PDGF-Rβ = target: T2, human PDGF-Rβ (Homo sapiens, UniProt P09619); assay: Biacore 2000 comparative kinetic analysis, PDGF-Rβ; type: binding; details: for KDInv/KDOrig: original set to 1.0
# T2 construct: purchased R&D Systems 385-PR-100/CF
# T2 sequence (P09619 with tags, fused parts or gaps limits assumed): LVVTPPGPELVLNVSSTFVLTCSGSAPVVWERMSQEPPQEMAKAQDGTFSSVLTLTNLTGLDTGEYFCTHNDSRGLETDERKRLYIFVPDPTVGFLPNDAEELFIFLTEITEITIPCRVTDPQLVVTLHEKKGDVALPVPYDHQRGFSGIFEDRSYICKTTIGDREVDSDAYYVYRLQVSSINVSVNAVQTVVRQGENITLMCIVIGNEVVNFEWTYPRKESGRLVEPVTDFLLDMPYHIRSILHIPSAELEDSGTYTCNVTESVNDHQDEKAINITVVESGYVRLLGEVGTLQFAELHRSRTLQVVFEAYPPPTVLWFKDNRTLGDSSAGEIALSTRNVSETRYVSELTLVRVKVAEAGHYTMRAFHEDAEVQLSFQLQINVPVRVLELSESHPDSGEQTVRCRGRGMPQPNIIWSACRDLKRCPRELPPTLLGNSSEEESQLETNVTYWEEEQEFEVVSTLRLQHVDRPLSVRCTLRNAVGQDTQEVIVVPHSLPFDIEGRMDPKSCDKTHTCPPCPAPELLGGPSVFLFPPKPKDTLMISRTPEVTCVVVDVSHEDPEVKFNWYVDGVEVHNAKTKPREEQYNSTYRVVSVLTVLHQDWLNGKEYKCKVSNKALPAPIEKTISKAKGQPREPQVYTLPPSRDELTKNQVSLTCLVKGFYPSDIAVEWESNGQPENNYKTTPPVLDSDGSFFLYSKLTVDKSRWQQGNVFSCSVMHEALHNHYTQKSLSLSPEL
# Protocol: as §1, §2
# The Z variants Z15805 (SEQ ID NO:30), Z17343 (SEQ ID NO:31), and Z17344 (SEQ ID NO:32) targeting PDGF-R13 were diluted in running buffer to final concentrations of 6.67, 20, 60 and 180 nM and injected for 5 minutes, followed by 20 minutes of dissociation in running buffer. Regeneration by three pulses of 10 mM NaOH followed by 5 min equilibration in running buffer was applied after each analyte injection.
# as §3
# [2] = (0) prior to stability test, comparative, not absolute
# [3] = (2w) after 2 weeks at 37° C., comparative, not absolute
# [4] = compared with original Z variant
ka (human HER2-Fc; (0) prior to stability test),kd (human HER2-Fc; (0) prior to stability test),Kd (human HER2-Fc; [2]),KDInv/KDOrig (human HER2-Fc; (0) prior to stability test),ka (human HER2-Fc; (2w) after 2 weeks at 37° C.),kd (human HER2-Fc; (2w) after 2 weeks at 37° C.),Kd (human HER2-Fc; [3]),KDInv/KDOrig (human HER2-Fc; (2w) after 2 weeks at 37° C.),KD(2w)/KD(0) (human HER2-Fc),Substance,Tm (° C.) [1],also measured
1.33e+06 M/s,7.1e-05 s⁻¹,0.054 nM,1.0,1.15e+06 M/s,7.19e-05 s⁻¹,0.062 nM,1.0,1.17,"Z02891: original Z variant polypeptide targeting HER2, His6-tagged [reference compound]",70 °C,–
894000 M/s,0.00157 s⁻¹,1.8 nM,33,649000 M/s,0.0015 s⁻¹,2.3 nM,37,1.31,"Z17342: inventive HER2 binding Z variant; D36R, D37Q, S39E, N52S, D53E (AEAKYAKEMRNAYWEIALLPNLTNQQKRAFIRKLYRQPEQSSELLSEAKKLSESQAPK; Engineered HER2 binding Z variant)",62 °C,effect of scaffold substitutions on the affinity (human HER2-Fc; [4]): more negative effect on the affinity; Kd (human HER2-Fc; range of magnitude): ~1 nM
–,–,–,–,–,–,–,–,–,"Z17344: inventive PDGF-Rβ binding Z variant; D36R, D37Q, S39E, N52S, D53E (AEAKYAKELIEAAAEIDALPNLTRRQWNAFIKKLVRQPEQSSELLSEAKKLSESQAPK; Engineered PDGFRbeta binding Z variant)",42 °C,ka (human PDGF-Rβ; (0) prior to stability test): 5.15e+07 M/s; kd (human PDGF-Rβ; (0) prior to stability test): 0.0616 s⁻¹; Kd (human PDGF-Rβ; [2]): 1.2 nM; KDInv/KDOrig (human PDGF-Rβ; (0) prior to stability test): 6.19; ka (human PDGF-Rβ; (2w) after 2 weeks at 37° C.): 5.62e+07 M/s; kd (human PDGF-Rβ; (2w) after 2 weeks at 37° C.): 0.0623 s⁻¹; Kd (human PDGF-Rβ; [3]): 1.1 nM; KDInv/KDOrig (human PDGF-Rβ; (2w) after 2 weeks at 37° C.): 3.88; KD(2w)/KD(0) (human PDGF-Rβ; KD after stability test relative to KD before): 0.93; effect of scaffold substitutions on the affinity (human PDGF-Rβ; [4]): more negative effect on the affinity; Kd (human PDGF-Rβ; range of magnitude): ~1 nM
